From paper PMC5874051, “Gene cloning of a neutral ceramidase from the sphingolipid metabolic pathway based on transcriptome analysis of Amorphophallus muelleri” (PLoS ONE, 2018)

Substrate: CCCCCCCCCCCCC/C=C/[C@@H](O)[C@H](CO)NC(=O)CCCCCCCCCCCNc1ccc([N+](=O)[O-])c2nonc12
Assay: hydrolysis of NBD-ceramide, reverse-phase HPLC with DAD detector; Michaelis-Menten and Lineweaver-Burk
Format: biochemical, Amorphophallus muelleri
Conditions: 37 °C, 1 h, pH of the kinetic assay not clearly stated, labelled compound

B1: AmCDase (A. muelleri neutral ceramidase) (Amorphophallus muelleri) (protein)
chain: MEASSCSRDYKDHDGSFKIWLCVFLDLVLLNGRLVSRSSDYLVGLASYDITGPAADVNMMGYANAEQIVSGVHFRLRARAFIVAEPGGKRVAFVNLDACMASQLVTIKVLERLKTRYGDLYTAENVAISGIHTHAGPGGYLQYVTYIVTSLGFVRQSFDIIVDGIERSIIQAHDNLRPGSIIVNKGELLDAGVNRSPSAYLNNPYDERKKYSYDVDKEMTLLKFVDDEWGPVGSFNWFATHGTSMSRTNSLISGDNKGAAARFMEDWFKQKSTEPAEHDLFRSDDKLNEIPRRVSIIIPRPRENYKNFTQLASSFPATGGERVTSFLSSTQRVRSIFRQGNRPAFVSAFCQSNCGDVSPNVLGAFCIDTGRPCDFNHSTCNGKNELCYGRGPGYPDEFESTRIIGERQLKKAVDLFDTASEQIKGKVDYRHTYINFSQLKVTIPSSNGSEQVVKTCPAAMGFAFAAGTTDGPGAFDFTQGDEKGNPFWRLVRNLLKTPDKVQVECQLPKPILLDTGEMKQPYDWAPSILPLQILRIGQLVILSVPGEFSTMAGRRLRDAVKMMLTSSGNNEFDNNVHIVIAGLTNTYSQYVTTFEEYEIQRYEGASTLYGPHTLSGYIQEFKKLAAALLNKQTVEPGPAPPDLLKKQMSLLPGVVMDAAPLGFNFGDVSDDVPALSKFKEGDKVSATFWSGCPRNDLLTEGTFALVERLNGVDTWVPAYDDDDFSLRFRWSRPSKFSPYSQATIEWRIPKDAPAGVYRLRHSGATKGLIGCINHFTGTSSAFAVR
notes: Ni-NTA and Superdex 200
- Km: 34.51 µM
